These results are taken from patent US10456465B2, “Compositions, kits, and methods for the diagnosis prognosis, monitoring, treatment and modulation of post-transplant lymphoproliferative disorders and hypoxia associated angiogenesis disorders using galectin-1” (Dana-Farber Cancer Institute, Inc., priority 2009, dated 2019).

One test addresses T1, Gal1 (Homo sapiens, UniProt P09382).
T1 construct: made in house
The experiment in a line: Binding of 488-Gal1 to HUVEC. On the procedure: For glycophenotyping, ECs were incubated with biotinylated L-PHA, LEL, SNA, MAL II, PNA and HPA (all from Vector). Recombinant Gal1 was purified as described in Ilarregui et al. (2009) Nat Immunol 10, 981-991. For binding assays, ECs were incubated for 1 h at 4° C. with dyLight 488-labeled galectins in the absence or presence of lactose, sucrose, anti-Gal1 or isotype control mAb or following transfection with GnT5, GCNT1 or scrambled siRNA. Cells were analyzed on a FACSAria (BD Biosciences). For segregation, ECs were treated with Gal1 for 1 h, fixed and incubated for 1 h with anti-human VEGFR2 antibody (55B11; Cell Signaling) as described in Ilarregui et al. (2009) Nat Immunol 10, 981-991. Cells were analyzed on a Nikon laser confocal microscope (Eclipse E800).
DyLight 488-conjugated Gal1 (488-Gal1) was obtained using DyLight labeling kit (Thermo Scientific). Inhibitors of Jak2-STAT3 (AG490; 5 μM), Jnk-SAP (SP600125; 20 μM), p38 (SB202190; 10 μM), HIF-1α (3 μM) and O-glycosylation (benzyl-α-Ga1NAc; 2 mM) were from Calbiochem. Inhibitors of Erk1/2 (U0126; 5 μM), PI(3)K-Akt (Ly294002; 2 μM) and NF-κB (BAY 11-7082; 1 μM), ROS (N-acetyl-cysteine; NAC), N-glycosylation (swainsonine; 3 μM), lactose or sucrose (30 mM) were from Sigma. PNGase F (25 U/μg protein) was from New England Biolabs. Recombinant cytokines including IL-10 (50 ng/ml), IL-17 (5 ng/ml), TGF-β1 (3 ng/ml), IFN-γ (50 ng/ml), VEGF (20 ng/ml), bFGF (10 ng/ml) were from R&D. TNF (20 ng/ml) was from Sigma. Biotinylated lectins, including L-PHA (2 μg/ml), LEL (1 μg/ml), SNA (5 μg/ml), MAL II (10 μg/ml), PNA (10 μg/ml) and HPA (10 μg/ml) were purchased from Vector Labs and incubated in buffer containing 150 mM NaCl, 10 mM HEPES and 1% BSA (Sigma). ON-TARGETplus SMART siRNA pools against GnT5, GCNT1, VEGFR2, NRP-1, VEGF, HIF-1α and scrambled were obtained from Dharmacon. Transfections were performed by Lipofectamine-RNAiMAX (Invitrogen) following manufacturer's directions. Recombinant Gal3 and Gal8 were purified as described in Acosta-Rodriguez et al. (2004) J Immunol 172, 493-502 and Cardenas Delgado et al. (2010) FASEB J [Epub ahead of print].

Test [1] deals with HUVEC. The experiment in a line: HUVEC proliferation ([3H]thymidine incorporation). Format: cell-based, human. The method, then:
(§1) HUVEC transfected or not with specific siRNA or pre-incubated with signaling pathway inhibitors were exposed to VEGF or Gal1 with or without lactose, sucrose, 8F4F8G7 mAb or control isotype (IgG1κ) or specific antibodies for VEGFR1 (AP-MAB0702; Abcam), VEGFR2 (AF357; R&D), VEGFR3 (AB89501; Abcam) or VEGF (MAB293; R&D). Cells were processed for proliferation, migration, invasion and tube formation assays. Tumor-associated blood vessels were identified by flow cytometry using Alexa Fluor 647-conjugated anti-CD34 antibody (RAM34; eBioscience).
For proliferation assays, HUVEC that were transfected or not with specific siRNA and cultured in complete M199 medium were trypsinized, harvested and seeded in 96-well microtiter plates (1×10^3 cells/well). Cells were pre-incubated for 1 hour at 37° C. with lactose, sucrose or signaling pathway inhibitors and then exposed to Gal1. After 24 hours, cells were incubated for an additional 24 hours in the presence of 0.8 μCi [^3H]-thymidine (NEN Dupont). Cells were then harvested and radioactivity was measured in a 1414 Liquid Scintillation Counter (Perkin Elmer).
(Incorporation of labelled thymidine or its analogues reports DNA synthesis.)

Test [2] deals with HUVEC. The experiment in a line: HUVEC migration (transwell). In kind it is cell-based, human. On the procedure: as §1
(§2) The formation of capillary-like tubular structures was assessed in Matrigel-coated plates essentially as described in Albini et al. (2001), Cancer Res 61, 8171-8178. In brief, HUVEC (3×10^4 cells/ml) transfected or not with specific siRNA or pre-incubated with signaling pathway inhibitors were seeded on Matrigel with our without Gal1 (0.1 to 3 μM) or VEGF (20 ng/ml) with or without lactose, sucrose, 8F4F8G7 mAb (0.5 μM) or isotype control (IgG1K) or blocking antibodies specific for VEGFR1 (5 μg/ml), VEGFR2 (2 μg/ml), VEGFR3 (10 μg/ml) or VEGF (10 μg/ml). Cells were incubated at 37° C. for periods ranging from 0 to 24 h and were visualized by phase-contrast microscopy. In another set of experiments, conditioned medium from hypoxic or normoxic KS cells infected or not with a retroviral vector containing Gal1 shRNA was assessed on HUVEC transfected or not with GnT5, GCNT1 or scr siRNA (100 nM). Capillary-like tubular structures were scored by counting the number of tubules (closed areas) per well in a phase-contrast microscope (Nikon E-100). For migration assays, HUVEC (4×10^4/well) transfected or not with specific siRNA were resuspended in M199 medium supplemented with 1% FCS. Cells were placed into the top chamber of the insert while the bottom well was filled with Gal1 or VEGF in the absence or presence of lactose, sucrose, 8F4F8G7 mAb or isotype control. After 24 hours, inserts were stained with crystal violet (Sigma) and analyzed in an inverted microscope. For each filter, 4 images were collected and cells were counted with the ImageJ software v1.34 (NIH).

Test [3] deals with HUVEC. The experiment in a line: HUVEC capillary tube formation on Matrigel. In kind it is cell-based, human. The method, then:
as §1, §2

T1 sequence (P09382 whole entry): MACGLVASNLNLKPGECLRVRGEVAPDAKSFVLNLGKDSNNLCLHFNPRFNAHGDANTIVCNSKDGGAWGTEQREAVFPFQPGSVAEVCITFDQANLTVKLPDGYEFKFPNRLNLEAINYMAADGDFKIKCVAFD

On to rGal1: recombinant human galectin-1, for which the “binding of fluorescently-labeled Gal1 to ECs” value with Gal1 (flow cytometry) was “bound to ECs in a dose- and carbohydrate-dependent fashion”. Moreover, the EC proliferation entry in the test with HUVEC [1] (HUVEC treated with Gal1) is given as “elicited”. In the test with HUVEC [2] (HUVEC treated with Gal1), the EC migration entry was “elicited”. In the test on HUVEC [3] (HUVEC treated with Gal1), the “formation of three-dimensional tubular networks” value was “at levels similar to those attained by VEGF”.

B1: anti-Gal1 monoclonal antibody 8F4F8G7 (antibody, V domains shown)
VH: EVQLQQSVAEFVRPGASVRLSCTASGFNIKNTYIHWVRQRPEQGLEWIGKIDPANGNTKYVPEFQGKATMTADTSSNTVYLHLSSLTSEDTAIYYCVDGYYGWYFAVWGTGTTVTVSS
VL: QAVVTQESALTTSPGETVTLTCRSSTGAVTTSNYANWVQEKPDHLFTGLIGATNNRAPGVPARFSGSLIGDKAVLTITGAQTEDEAIYFCALWYRNHFIFGSGTKVTVL
notes: Murine hybridoma mAb (deposit PTA-10535), lambda light chain; also called 14-19 8F4-F8-G7; clone 8F4.8F.67
For B1, the “effect on binding of Gal1 to ECs” value with Gal1 (lactose/sucrose 30 mM, swainsonine 3 μM, benzyl-α-GalNAc 2 mM, mAb 0.5 μM) is “prevented”. Moreover, in the test with HUVEC [1] (induced by Gal1), the “effect on Gal1-induced EC proliferation” value is reported as “prevent”. Besides, the “effect on Gal1-induced EC migration” value with HUVEC [2] (induced by Gal1) is given as “prevent”. Further, the “effect on EC migration in the absence of exogenous Gal1” value with HUVEC [2] (no exogenous Gal1) was “did not alter”. In addition, in the test with HUVEC [3] (induced by Gal1), the “effect on Gal1-induced capillary tube formation” value is “prevent”. Besides, the “effect on tube formation in the absence of exogenous Gal1” value in the test with HUVEC [3] (no exogenous Gal1) is recorded as “did not alter”.
